The Kd is the equilibrium constant for the complex coming apart. Higher therefore signals a looser complex.

Series [1] addresses endogenous TSHR on Graves' orbital fibroblasts (GOFs) (Homo sapiens) (UniProt P16473). Nature of the series: flow cytometry. As to conditions: Flow: DPBS, 5 mM MgCl2, 4.5 g/L glucose, 0.1 mg/mL yeast tRNA, 1 mg/mL BSA, 4 C 30 min; SPR: DPBS, 5 mM Mg2+, pH 7.4, 25 C. A general note: In flow cytometry, cells or beads pass a laser one at a time.
The target of series [2] is TSHR on TSHR-293T cells (Homo sapiens) (UniProt P16473). Nature of the series: flow cytometry. The conditions noted are these: Flow: DPBS, 5 mM MgCl2, 4.5 g/L glucose, 0.1 mg/mL yeast tRNA, 1 mg/mL BSA, 4 C 30 min; SPR: DPBS, 5 mM Mg2+, pH 7.4, 25 C.
TSHR on TSHR-293T cells (Homo sapiens), sequence (P16473 21-764): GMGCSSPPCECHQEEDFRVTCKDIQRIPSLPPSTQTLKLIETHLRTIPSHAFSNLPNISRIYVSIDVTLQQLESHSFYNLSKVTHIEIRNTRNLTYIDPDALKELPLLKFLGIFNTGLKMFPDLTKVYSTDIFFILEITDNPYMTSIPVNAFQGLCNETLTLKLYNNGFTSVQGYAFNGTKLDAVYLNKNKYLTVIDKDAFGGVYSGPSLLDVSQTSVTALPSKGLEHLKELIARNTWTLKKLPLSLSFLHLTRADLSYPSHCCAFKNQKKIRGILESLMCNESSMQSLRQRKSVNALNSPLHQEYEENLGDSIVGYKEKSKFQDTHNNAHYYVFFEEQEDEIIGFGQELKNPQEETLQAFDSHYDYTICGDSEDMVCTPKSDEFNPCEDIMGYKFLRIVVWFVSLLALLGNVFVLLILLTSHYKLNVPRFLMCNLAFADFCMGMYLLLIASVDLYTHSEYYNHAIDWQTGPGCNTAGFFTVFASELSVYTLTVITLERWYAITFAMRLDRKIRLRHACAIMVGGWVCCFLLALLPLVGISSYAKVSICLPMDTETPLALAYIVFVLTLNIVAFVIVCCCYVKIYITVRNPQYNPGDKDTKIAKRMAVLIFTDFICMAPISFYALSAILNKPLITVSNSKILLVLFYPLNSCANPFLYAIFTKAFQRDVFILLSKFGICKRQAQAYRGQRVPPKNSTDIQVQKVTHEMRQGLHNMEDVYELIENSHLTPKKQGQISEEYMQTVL

endogenous TSHR on Graves' orbital fibroblasts (GOFs) (Homo sapiens), sequence (P16473 21-764): as above

On to “ACCGACCGTGCTGGACTCAGATGAACAATCGATGGAAGATTGGGTCGCACCGGCCTCTTTCACTATGAGCGAGCCTGGCG [YC3]”, for which the Kd in series [1] came to 99.2 nM; in series [2] it was 260 nM.

These data come from article PMC12822413.
